Data reported in patent US20230340152A1 (published 2023).

Assays:
Test in all cases: SPR (ProteOn), CD73 variant immobilized on HTG chip
[1] = biological target: T1, KO_Cterm CD73 chimera (human; chicken)
T1 construct: also called C-terminal domain-swapped CD73
T1 chain: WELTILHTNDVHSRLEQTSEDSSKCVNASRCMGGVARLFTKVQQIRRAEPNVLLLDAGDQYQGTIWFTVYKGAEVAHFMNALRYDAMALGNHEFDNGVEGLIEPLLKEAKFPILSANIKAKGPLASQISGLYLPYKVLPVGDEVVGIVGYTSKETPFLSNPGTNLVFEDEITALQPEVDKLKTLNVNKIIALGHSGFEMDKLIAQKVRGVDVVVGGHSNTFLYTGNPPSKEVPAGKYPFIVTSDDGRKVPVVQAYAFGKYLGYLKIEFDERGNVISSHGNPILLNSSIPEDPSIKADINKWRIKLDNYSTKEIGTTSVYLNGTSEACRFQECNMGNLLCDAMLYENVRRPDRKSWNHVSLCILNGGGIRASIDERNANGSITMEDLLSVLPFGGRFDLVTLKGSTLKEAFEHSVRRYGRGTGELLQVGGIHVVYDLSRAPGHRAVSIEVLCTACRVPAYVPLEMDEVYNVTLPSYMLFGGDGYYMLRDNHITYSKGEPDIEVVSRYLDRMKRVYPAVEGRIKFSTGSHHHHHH
Experimental: (§1) Binding of MEDI9447 to wild-type and mutant CD73 proteins was measured by surface plasmon resonance (SPR) using a ProteOn instrument (BioRad). CD73 crude cell supernatant protein samples were diluted to 3 µg/ml in PBS, 0.005% Tween-20, pH 7.4 (BioRad) and immobilized to ~400 RU on a HTG tris-NTA sensor chip (BioRad) pre-activated with 10 mM NiSO₄, 10 mM MES, pH 6.0 (BioRad). An equivalently diluted crude cell supernatant sample from non-transfected cells was included as a reference channel control. Sensorgrams were recorded by flowing two-fold dilutions of MEDI9447 prepared in PBS, 0.005% Tween-20, pH 7.4, ranging from 5 nM to 0.31 nM. […] Antibody binding was measured at a flow rate of 100 µL/min with a 3 min association phase and 20 min dissociation phase. The sensor chip surface was regenerated between each run by an 800 s injection of 300 mM EDTA, pH 8.5 (BioRad) at a flow rate of 30 µL/min. Binding kinetics were analyzed using the ProteOn data analysis software. Double referencing was performed and, unless noted otherwise, a 1:1 Langmuir binding model was utilized to fit the data. Some CD73 variants containing mutations within the amino acid region 171-188 fit poorly to a 1:1 model (i.e., Chi² values >10% of Rmax). Where noted, these variants were fit with a heterogenous antigen (2:1) model. […] Due to the assay format (antigen immobilized) and the dimeric state of CD73, KD values may be exaggerated due to avidity effects. However, it is not anticipated that this impacts ranking of MEDI9447 binding to the different CD73 variants.

[2] = biological target: T2, HDX_E1 CD73 chimera (human; chicken, UniProt P21589 27-553)
T2 chain: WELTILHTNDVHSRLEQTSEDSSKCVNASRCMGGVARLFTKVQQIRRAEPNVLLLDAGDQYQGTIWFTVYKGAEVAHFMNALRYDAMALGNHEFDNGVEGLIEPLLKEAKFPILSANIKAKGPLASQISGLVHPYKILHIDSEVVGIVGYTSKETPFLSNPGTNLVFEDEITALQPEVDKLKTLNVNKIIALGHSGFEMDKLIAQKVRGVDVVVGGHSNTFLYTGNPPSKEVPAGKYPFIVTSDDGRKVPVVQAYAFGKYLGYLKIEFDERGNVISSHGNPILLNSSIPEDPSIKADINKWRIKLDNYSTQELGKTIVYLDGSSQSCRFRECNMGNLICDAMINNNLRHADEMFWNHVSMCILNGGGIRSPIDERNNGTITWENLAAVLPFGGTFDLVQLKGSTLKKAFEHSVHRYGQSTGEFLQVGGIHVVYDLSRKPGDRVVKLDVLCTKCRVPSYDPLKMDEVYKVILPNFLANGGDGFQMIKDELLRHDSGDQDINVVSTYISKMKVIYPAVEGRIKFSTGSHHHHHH
Experimental: as §1

[3] = biological target: T3, Human CD73 V144K+K180A, His-tagged (human, UniProt P21589 27-549)
T3 chain: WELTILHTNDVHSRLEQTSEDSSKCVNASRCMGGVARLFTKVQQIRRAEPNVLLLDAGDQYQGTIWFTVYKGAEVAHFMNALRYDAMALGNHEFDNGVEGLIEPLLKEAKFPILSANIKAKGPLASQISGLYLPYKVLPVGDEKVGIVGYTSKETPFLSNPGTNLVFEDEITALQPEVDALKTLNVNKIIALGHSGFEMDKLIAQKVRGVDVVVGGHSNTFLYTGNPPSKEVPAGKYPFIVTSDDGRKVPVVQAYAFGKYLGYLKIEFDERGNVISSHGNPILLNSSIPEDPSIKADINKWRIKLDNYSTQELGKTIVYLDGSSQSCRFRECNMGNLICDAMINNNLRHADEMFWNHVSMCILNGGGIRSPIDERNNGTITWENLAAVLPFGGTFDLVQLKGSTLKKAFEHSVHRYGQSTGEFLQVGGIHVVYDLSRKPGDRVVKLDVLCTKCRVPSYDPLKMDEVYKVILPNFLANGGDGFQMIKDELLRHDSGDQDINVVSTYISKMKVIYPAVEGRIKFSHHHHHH
Experimental: as §1

B1: MEDI9447 (antibody, human IgG1, lambda, V domains shown)
VH: EVQLLESGGGLVQPGGSLRLSCAASGFTFSSYAYSWVRQAPGKGLEWVSAISGSGGRTYYADSVKGRFTISRDNSKNTLYLQMNSLRAEDTAVYYCARLGYGRVDEWGRGTLVTVSS
VL: QSVLTQPPSASGTPGQRVTISCSGSLSNIGRNPVNWYQQLPGTAPKLLIYLDNLRLSGVPDRFSGSKSGTSASLAISGLQSEDEADYYCATWDDSHPGWTFGGGTKLTVLG
notes: Human IgG1-TM (L234F, L235E, P331S), lambda light chain; also called clone 10.3 antibody; 73combo3
With B1 the Kd [1] was 1.7 pM, the koff [1] was 8.1e-06 s⁻¹ and the kon [1] was 4.75e+06 M⁻¹ s⁻¹. For the same binder, the Kd [2] was 9.9 pM, the koff [2] was 2.12e-05 s⁻¹ and the kon [2] was 2.15e+06 M⁻¹ s⁻¹. It also gave a koff [3] of 0.00425 s⁻¹ and a kon [3] of 1.58e+06 M⁻¹ s⁻¹.
